US20240417436A1 (BRIGHT PEAK THERAPEUTICS, published 2024)
Read-outs that look alike come from different tables or passages of the source. Bridges are numbered along the chain shown (N, C = ends). [ ]: non-standard residue; d: D form. Ygp = O-(8x polyethylene glycol-amino)-tyrosine; Yn3 = O-(9x polyethylene glycol-azido)-tyrosine; hSer = N[C@@H](CCO)C(=O)O; Nle = CCCC[C@H](N)C(=O)O

Assays:
[1] = biological target: T1, recombinant human IL-2 receptor beta containing a His-tag and Avi-Tag (R&D Systems #AVI10459) (human, UniProt P14784 27-239); experiment: BLI (Octet), receptor on SAX2 sensor, IL-2 as analyte; construct CMP-151, macrocyclic activatable IL-2 polypeptide
T1 construct: bought protein, held on the Octet SAX2 sensor; also called CD122; IL-2Rβ
T1 sequence (looked up): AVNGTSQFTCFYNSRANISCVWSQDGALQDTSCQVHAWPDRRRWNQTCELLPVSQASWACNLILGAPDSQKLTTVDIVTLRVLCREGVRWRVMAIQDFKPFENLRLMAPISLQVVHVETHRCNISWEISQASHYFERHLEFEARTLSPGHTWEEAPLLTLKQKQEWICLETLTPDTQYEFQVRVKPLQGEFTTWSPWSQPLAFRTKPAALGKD
Protocol: (§1) Bilayer interferometry (BLI) assays were used to measure the binding constants between activatable IL-2 polypeptides (and activated versions thereof) to IL-2 receptor subunits or receptor complexes. BLI assays were conducted on an Octet® R8 instrument. Assay plates were 96 well, polypropylene, F-bottom (chimney well), black microplates (Greiner Bio-one, Cat. No: 655209). The biosensors were Octet® SAX2 (Sartorius, Cat. No: 18-5136). The assay buffer was 1× Kinetic Buffer (Sartorius, Cat. no: 18-5136) or Phosphate Buffered Saline (PBS) that contained 0.02% (v: v) Tween 20 (Polysorbate 20) and 0.1% (w/v) bovine serum albumin (BSA). The sensor was regenerated between measurements in 10 mM glycine pH 2.7 buffer.
(§2) Sensor attached receptors were either recombinant human IL-2 receptor beta containing a His-tag and Avi-Tag™ (R&D Systems™ #AVI10459) or an Avi-Tag™ Fc with human IL-2R beta and IL-2R gamma attached (Acrobiosystems Cat. no: ACRB-ILG-H82F3-25UG). Receptors were reconstituted from lyophilized powder to 500 μg/ml in PBS. Analytes were diluted in Kinetic buffer to 300 nM, then serially diluted to lower concentrations.

[2] = biological target: T2, IL-2 receptor βγ complex on pan T cells (human, UniProt P14784 27-551; P31785 23-369); experiment: cell-based or functional assay
T2 sequence (looked up) 1: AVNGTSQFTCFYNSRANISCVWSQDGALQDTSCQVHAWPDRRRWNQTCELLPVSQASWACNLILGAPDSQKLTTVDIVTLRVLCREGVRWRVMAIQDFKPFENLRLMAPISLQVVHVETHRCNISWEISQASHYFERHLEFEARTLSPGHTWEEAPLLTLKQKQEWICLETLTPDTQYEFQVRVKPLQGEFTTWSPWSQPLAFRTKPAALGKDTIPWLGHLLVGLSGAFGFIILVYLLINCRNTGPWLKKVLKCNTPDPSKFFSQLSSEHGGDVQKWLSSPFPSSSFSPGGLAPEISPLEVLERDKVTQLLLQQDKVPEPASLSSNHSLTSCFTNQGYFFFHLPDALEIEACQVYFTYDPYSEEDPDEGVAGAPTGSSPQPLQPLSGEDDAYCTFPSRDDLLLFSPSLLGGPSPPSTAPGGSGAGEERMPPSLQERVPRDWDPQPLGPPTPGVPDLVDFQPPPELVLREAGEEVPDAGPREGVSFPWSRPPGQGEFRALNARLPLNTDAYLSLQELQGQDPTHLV
T2 sequence (looked up) 2: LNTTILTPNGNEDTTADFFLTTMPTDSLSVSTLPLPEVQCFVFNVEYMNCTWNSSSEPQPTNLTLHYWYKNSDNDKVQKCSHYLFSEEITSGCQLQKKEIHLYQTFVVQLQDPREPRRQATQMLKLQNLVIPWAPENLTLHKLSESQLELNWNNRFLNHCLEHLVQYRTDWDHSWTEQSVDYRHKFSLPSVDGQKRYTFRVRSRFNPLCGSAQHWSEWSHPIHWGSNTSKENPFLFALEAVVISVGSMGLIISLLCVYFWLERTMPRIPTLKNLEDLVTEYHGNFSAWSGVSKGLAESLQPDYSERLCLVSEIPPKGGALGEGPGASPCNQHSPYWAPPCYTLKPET

[3] = biological target: T1, recombinant human IL-2 receptor beta …; experiment: BLI (Octet), receptor on SAX2 sensor, IL-2 as analyte; construct CMP-168, intact (not the MMP2-treated row r13)
Protocol: as §1, §2

[4] = biological target: T1, recombinant human IL-2 receptor beta …; experiment: BLI (Octet), receptor on SAX2 sensor, IL-2 as analyte
Protocol: as §1, §2

[5] = biological target: T3, Avi-Tag Fc with human IL-2R beta and IL-2R gamma attached (Acrobiosystems ACRB-ILG-H82F3-25UG) (human, UniProt P14784 27-239; P31785 23-262); experiment: as above
T3 construct: bought heterodimer; also called CD122 CD132; CD122/CD132 complex
T3 sequence (looked up) 1: T1 sequence (looked up)
T3 sequence (looked up) 2: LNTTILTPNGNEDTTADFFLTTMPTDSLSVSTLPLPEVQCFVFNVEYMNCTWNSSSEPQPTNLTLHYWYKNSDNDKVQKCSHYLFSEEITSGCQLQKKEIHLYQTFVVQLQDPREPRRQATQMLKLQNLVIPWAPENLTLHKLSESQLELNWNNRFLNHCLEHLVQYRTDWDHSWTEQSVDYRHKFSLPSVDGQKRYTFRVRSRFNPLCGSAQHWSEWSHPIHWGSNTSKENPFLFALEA
Protocol: as §1, §2

[6] = biological target: T2, IL-2 receptor βγ complex on pan T cells; experiment: cell-based or functional assay; remark: listed apart in the source
[7] = biological target: T1, recombinant human IL-2 receptor beta …; experiment: BLI (Octet), receptor on SAX2 sensor, IL-2 as analyte; construct CMP-165, intact (not the MMP2-treated row r16)
Protocol: as §1, §2

[8] = biological target: human PD-1 on Jurkat T cells (PD-1/PD-L1 Blockade Bioassay) (human, UniProt Q15116 25-288); experiment: cell-based or functional assay
[9] = biological target: T4, human FcRn (AlphaLISA FcRn Human Binding kit, Perkin Elmer AL3095C) (human, UniProt P55899 24-297; P61769 21-119, limits assumed); experiment: AlphaLISA FcRn Human Binding kit (competition)
T4 construct: kit reagent, construct not described
Protocol: (§3) FcRn Binding Assays—The ability of the activatable immunocytokines to bind to FcRn receptor was performed following manufacturer's instructions using the AlphaLISA FcRn Human Binding kit, Perkin Elmer, Cat #AL3095C. An analogous protocol was performed husing mouse FcRn.

[10] = biological target: T5, recombinant biotinylated PD1/CD279 protein (Biolegend 789406) (human, UniProt Q15116 25-167, limits assumed, biotinylated); experiment: ELISA, test molecule coated, biotinylated PD-1 titrated, streptavidin-HRP
T5 construct: also called human PD1
Protocol: Plates were then washed four times with 100 μl of PBS-0.2% Tween20 (wash buffer). […] Plates were then washed four times with 100 μl of wash buffer. […] Plates were then washed four times with wash buffer. […] Plates were then washed four times with 100 μl of wash buffer. Fifty microliters of TMB substrate reagent (#CL07, Merck, Buchs, Switzerland) were added to each well and incubated at 37° C. during 5 min. After 5 min at 37° C., Horseradish peroxidase reaction was stopped by adding 50 μl/well of 0.5M H₂SO₄ stop solution. ELISA signal was then measured at 450 nm on an EnSpire plate reader from Perkin Elmer (Schwerzenbach, Switzerland).

mouse CD64 = biological target: T6, mouse CD64 (mouse, UniProt P26151 25-297, limits assumed); experiment: ELISA, analogous protocol with mouse CD64
T6 construct: construct not described; also called mouse FcgR I (CD64)
T6 sequence (looked up): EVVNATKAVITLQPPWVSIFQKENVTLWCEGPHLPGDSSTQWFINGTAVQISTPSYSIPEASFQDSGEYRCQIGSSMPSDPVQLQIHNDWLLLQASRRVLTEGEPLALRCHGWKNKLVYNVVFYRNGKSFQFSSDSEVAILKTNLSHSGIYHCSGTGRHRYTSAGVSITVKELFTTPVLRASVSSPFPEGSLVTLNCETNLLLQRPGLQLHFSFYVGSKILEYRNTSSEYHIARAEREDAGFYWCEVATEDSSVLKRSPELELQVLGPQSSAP

[11] = biological target: T7, recombinant Human Fc gamma RI/CD64 Protein (R&D systems, 1257-FC-050) (human, UniProt P12314 16-288); experiment: ELISA, test molecule coated, human CD64 titrated
T7 construct: also called human FcgR I (CD64); FcγRI
Protocol: FcγRI (CD64) Binding Assays—The interaction of the activatable immunocytokines with human Fc gamma receptors I (FcγRI/CD64) was measured by ELISA. Briefly, Corning high-binding half-area plates (Fisher Scientific, Reinach, Switzerland) were coated overnight at 4° C. with 25 μl of immunocytokines at […] in PBS. Plates were then washed four times with 100 μl of PBS-0.2% Tween20 (wash buffer). Plates surfaces were blocked with 25 μl of PBS1% BSA at 37° C. for 1h. Plates were then washed four times with wash buffer. Then twenty-five microliters of either recombinant Human Fc gamma RI/CD64 Protein (R&D systems, 1257-FC-050, CF) was added in serial dilutions into PBS-T-0.1% BSA and incubated at 37° C. for 2h. Plates were then washed four times with 100 μl of wash buffer. Twenty-five microliters of Streptavidin-Horseradish peroxidase (#RABHRP3, Merck, Buchs, Switzerland) diluted into PBS-T-0.1% BSA were added to each well and incubated at Room Temperature for 1h. Plates were then washed four times with wash buffer. TMB substrate reagent (#CL07, Merck, Buchs, Switzerland) were added to each well and incubated for 5 min. After 5 min, Horseradish peroxidase reaction was stopped by adding 1M H2SO4 stop solution. ELISA signal was then measured at 450 nm on a plate reader.

mouse FcRn = biological target: T8, mouse FcRn (mouse, UniProt Q61559 22-297; P01887 21-119, limits assumed); experiment: analogous AlphaLISA protocol with mouse FcRn
T8 construct: construct not described
T8 sequence (looked up): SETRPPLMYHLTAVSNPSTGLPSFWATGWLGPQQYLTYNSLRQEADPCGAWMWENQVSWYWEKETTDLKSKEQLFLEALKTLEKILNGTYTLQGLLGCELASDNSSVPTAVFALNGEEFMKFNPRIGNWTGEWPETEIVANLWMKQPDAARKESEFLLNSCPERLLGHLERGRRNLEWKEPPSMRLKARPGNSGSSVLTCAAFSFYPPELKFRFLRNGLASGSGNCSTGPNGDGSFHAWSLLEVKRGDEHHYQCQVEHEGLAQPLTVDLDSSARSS
T8 sequence (b2m, looked up): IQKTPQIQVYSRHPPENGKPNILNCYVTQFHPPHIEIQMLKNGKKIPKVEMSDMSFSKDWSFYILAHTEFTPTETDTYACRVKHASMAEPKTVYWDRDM
Protocol: as §3

B1: CMP-151 (ligand)
chain: APTSSSTKKTQLQLEHLLLDLQKILNGINNYKNPKLTR[Nle]L[hSer][Yn3]KF[Ygp][Nle]PKKATELKHLQCLEEELKPLEEVL[hSer]LAQSKNFHLRPRDLISNINVIVLELKGSETTF[hSer]CEYADETATIVEFLNRWITFSQSIISTLT
modifications: disulfide 58-105; bridge N-23; not fully specified (bridges)
Kd [1]: 65.4 nM | Average EC50, pSTAT5 assay in pan T cells, intact molecule [2]: 28.2 nM

B2: CMP-168 (ligand)
chain: APTSSSTKKTQLQLEHLLLDLQEILNGINNYKNPKLTR[Nle]L[hSer][Yn3]KF[Ygp][Nle]PKKATELKHLQCLEEELKPLEEVL[hSer]LAQSKNFHLRPRDLISNINVIVLELKGSETTF[hSer]CEYADETATIVEFLNRWITFSQSIISTLT
modifications: disulfide 58-105 (inferred); bridge 9-23; not fully specified (residue 23, bridges)
Kd [3]: 25100 nM | koff [4]: 0.0721 s⁻¹ | kon [4]: 2880 M⁻¹ s⁻¹ | Kd [5]: 136 nM | koff [5]: 0.0022 s⁻¹ | kon [5]: 16200 M⁻¹ s⁻¹ | Average EC50, pSTAT5 assay in pan T cells, intact molecule [6]: 144 nM

B3: CMP-165 (ligand)
chain: APTSSSTKKTQLQLEHLLLDLQKILNGINNYKNPKLTR[Nle]L[hSer][Yn3]KF[Ygp][Nle]PKKATELKHLQCLEEELKPLEEVL[hSer]LAQSKNFHLRPRDLISNINVIVLELKGSETTF[hSer]CEYADETATIVEFLNRWITFSQSIISTLT
modifications: disulfide 58-105 (inferred); bridge N-23; not fully specified (bridges)
Kd [7]: 44200 nM

B4: LZM-009 (antibody, human IgG4 S228P, kappa)
heavy: not shown
light: EIVLTQSPATLSLSPGERATISCRASKGVSTSGYSYLHWYQQKPGQAPRLLIYLASYLESGVPARFSGSGSGTDFTLTISSLEPEDFATYYCQHSRELPLTFGTGTKVEIKRTVAAPSVFIFPPSDEQLKSGTASVVCLLNNFYPREAKVQWKVDNALQSGNSQESVTEQDSKDSTYSLSSTLTLSKADYEKHKVYACEVTHQGLSSPVTKSFNRGEC
notes: unconjugated anti-PD-1 IgG4; also called LZM-009 Intact
Mean EC50, PD1/PD-L1 blockade (NFAT-RE luciferase reporter) [8]: 7.34 nM | IC50 [9]: 5.79 nM | EC50 [10]: 0.05 nM | EC50 (mouse CD64): 554 nM | EC50 [11]: 0.32 nM | EC50 (mouse FcRn): 0.77 nM
